Experiment [1] addresses recombinant human osteopontin protein (GST-OPN-his, purified in house) (human) (UniProt P10451). The experiment can be described thus: cell-based or functional assay.
Substrate in experiment [2]: OPN antigen peptide YGLRSKS labeled with biotin (mouse and human (same sequence around the thrombin cleavage site))
The experiment can be described thus: direct ELISA, biotinylated peptide on avidin-coated plate, purified IgG serially diluted, 4-parameter fit.

Sequence of UniProt P10451 (P10451 17-314): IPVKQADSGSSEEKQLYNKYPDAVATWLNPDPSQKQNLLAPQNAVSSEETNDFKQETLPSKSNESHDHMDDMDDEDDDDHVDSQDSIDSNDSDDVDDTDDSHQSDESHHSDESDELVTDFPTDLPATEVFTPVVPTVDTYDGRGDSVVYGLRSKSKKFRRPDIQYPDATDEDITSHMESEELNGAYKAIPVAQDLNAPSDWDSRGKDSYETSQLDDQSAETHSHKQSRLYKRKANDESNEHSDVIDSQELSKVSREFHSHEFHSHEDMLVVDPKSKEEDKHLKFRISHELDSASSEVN

B1: A2 rabbit monoclonal anti-osteopontin antibody (antibody, V domains shown)
VH: QSVKESEGGLFKPTDTLTLTCKASGFTVSSYDMGWLRQAPGNGLESIGAIGSDGSEYYVSWARGRTAITRNTNQNTVTLKMTSLTAADTATYFCARDSHYSYGYDYDIWGPGTLVTVSS
VL: QVLTQTPSPVSAAVGGTVSISCQSSQSIYSNYLSWYQQKPGQPPKLLIYYASTLASGVPSRFKGSGSGTQFTLTISGVQCDDAATYYCQGTYYVTGWYDAFGGGTEVVVKG
For the molecule B1, the % inhibition of thrombin cleavage of human OPN-FL (OPN-R generated, OPN-R specific ELISA) in experiment [1] turned out to be 82%. Besides, in experiment [2], the EC50 worked out at 2.6 ng/mL.

B2: A6 rabbit monoclonal anti-osteopontin antibody (antibody, V domains shown)
VH: QSVKESEGGLFKPTDTLTLTCKASGFTVSSYDMGWLRQAPGNGLESIGAIGSDGSEYYVSWARGRTTITRNTNQNTVTLKMTSLTAADTATYFCARDSHYSYGYDYDIWGPGTLVTVSS
VL: QVLTQTPSPVSAAVGGTVSISCQSSQSIYSNYLSWYQQKPGQPPKLLIYYASTLASGVPSRFKGSGSGTQFTLTISGVQCDDAATYYCQGTYYVTGWYDAFGGGTEVVVKG
Consider B2, for which, in experiment [1], the % inhibition of thrombin cleavage of human OPN-FL (OPN-R generated, OPN-R specific ELISA) was determined as 95.4%. In experiment [2], the EC50 is 3.2 ng/mL.

B3: G7 rabbit monoclonal anti-osteopontin antibody (antibody, V domains shown)
VH: QSVKESEGGLFKPTDTLTLTCTVSGFSLSSYGVSWVRQAPGNGLEWIGFIDKYGRTHYASWAKSRSTITRNTNENTVTLKMTSLTAADTATFLCARDDYRPAYGFDIWGPGTLVTVSS
VL: QVLTQTASPVSAAVGSTVTINCQASQSVYNNNWLSWFQQKPGQPPKQLIYGASTLPSGVSSRFKGSGSGTQFTLTISDVQCDDAATYYCLGGYHWSTADCNVFGGGTEVVVKG
On to B3, for which the % inhibition of thrombin cleavage of human OPN-FL (OPN-R generated, OPN-R specific ELISA) in experiment [1] turned out to be 60.1%. The EC50 in experiment [2] came out at 93.2 ng/mL.

The values are drawn from US20220324956A1.
